Assay results: patent publication US20090285813A1 (MMRGLOBAL, published 2009)
Values belong to the binder of their own block, whether it stands above or below them.

How the values were obtained:
[1] = biological target: T1, human CD20 (human, UniProt P11836 1-297); experiment: anti-CD20 cellular ELISA, supernatant; rank 2 of 29
T1 construct: whole, on cells; Target always presented on cells; also called CD20 antigen
T1 sequence (looked up): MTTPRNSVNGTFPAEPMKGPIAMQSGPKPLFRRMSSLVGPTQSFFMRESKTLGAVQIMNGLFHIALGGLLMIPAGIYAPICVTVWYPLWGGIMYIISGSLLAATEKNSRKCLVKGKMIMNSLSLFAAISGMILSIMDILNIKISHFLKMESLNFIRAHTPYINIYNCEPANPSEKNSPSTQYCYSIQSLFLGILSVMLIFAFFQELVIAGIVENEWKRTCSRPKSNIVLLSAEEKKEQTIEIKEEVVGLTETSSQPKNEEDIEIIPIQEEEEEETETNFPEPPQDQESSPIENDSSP

[2] = biological target: T1, human CD20; experiment: anti-CD20 cellular ELISA, supernatant; rank 6 of 29
[3] = biological target: T1, human CD20; experiment: anti-CD20 cellular ELISA, supernatant; rank 5 of 29
[4] = biological target: T1, human CD20; experiment: anti-CD20 cellular ELISA, supernatant; rank 1 of 29
[5] = biological target: T1, human CD20; experiment: anti-CD20 cellular ELISA, supernatant; rank 3 of 29
[6] = biological target: T1, human CD20; experiment: anti-CD20 cellular ELISA, supernatant; rank 7 of 29
[7] = biological target: T1, human CD20; experiment: anti-CD20 cellular ELISA, supernatant; rank 4 of 29
[8] = biological target: T1, human CD20; experiment: anti-CD20 cellular ELISA, supernatant; rank 8 of 29

binding result [2]: binds
B2: anti-CD20 HuFR variant 6 (light chain BD22089, heavy chain BD20335) (antibody, human IgG1, kappa, V domains shown)
VH: QVQLVQSGAEVKKPGASVKVSCKASGYTFTSYNMHWVRQAPGKGLEWMGAIYPGNGDTSYNQKFKGRFTISRDNAKNSLYLQMNSLRAEDTAVYYCARSHYGSNYVDYFDYWGQGTLVTVSS
VL: EIVLTQSPATLSLSPGERATLSCRASSSLSFMHWYQQKPGQPPKLLIYATSNLASGVPSRFSGSGSGTDFTFTISSLQPEDIATYYCHQWSSNPLTFGQGTKVEIKR
notes: Full-length IgG, unpurified HEK-293 supernatant; also called LC & HC combination 6

binding result [4]: binds
B4: anti-CD20 HuFR variant 1 (light chain BD22084, heavy chain BD20332) (antibody, human IgG1, kappa, V domains shown)
VH: QVQLVQSGAEVKKPGASVKVSCKASGYTFTSYNMHWVRQAPGKGLEWVGAIYPGNGDTSYNQKFKGRVTISADKSISTAYLQWSSLKASDTAMYYCARSHYGSNYVDYFDYWGQGTLVTVSS
VL: DIVMTQSPLSLPVTPGEPASISCRASSSLSFMHWYQQKPGQPPKLLIYATSNLASGIPARFSGSGSGTDFTLTISSLEPEDFAVYYCHQWSSNPLTFGQGTKVEIKR
notes: Full-length IgG, unpurified HEK-293 supernatant; also called LC & HC combination 1

binding result [5]: binds
B5: anti-CD20 HuFR variant 3 (light chain BD22086, heavy chain BD20335) (antibody, human IgG1, kappa, V domains shown)
VH: QVQLVQSGAEVKKPGASVKVSCKASGYTFTSYNMHWVRQAPGKGLEWMGAIYPGNGDTSYNQKFKGRFTISRDNAKNSLYLQMNSLRAEDTAVYYCARSHYGSNYVDYFDYWGQGTLVTVSS
VL: DIVMTQSPLSLPVTPGEPASISCRASSSLSFMHWYQQKPGQAPRLLIYATSNLASGVPDRFSGSGSGTDFTLTISSLQAEDVAVYYCHQWSSNPLTFGQGTKVEIKR
notes: Full-length IgG, unpurified HEK-293 supernatant; also called LC & HC combination 3

binding result [6]: binds
B6: anti-CD20 HuFR variant 7 (light chain BD22090, heavy chain BD20337) (antibody, human IgG1, kappa, V domains shown)
VH: QVQLVQSGAEVKKPGASVKVSCKASGYTFTSYNMHWVRQAPGQGLEWMGAIYPGNGDTSYNQKFKGRVTISADKSISTAYLQWSSLKASDTAMYYCARSHYGSNYVDYFDYWGQGTLVTVSS
VL: DIVMTQSPLSLPVTPGEPASISCRASSSLSFMHWYLQKPGQSPQLLIYATSNLASGVPDRFSGSGSGTDFTLKISRVEAEDVGVYYCHQWSSNPLTFGQGTKVEIKR
notes: Full-length IgG, unpurified HEK-293 supernatant; also called LC & HC combination 7

Continued, binder first:

B1: anti-CD20 HuFR variant 2 (light chain BD22085, heavy chain BD20335) (antibody, human IgG1, kappa, V domains shown)
VH: QVQLVQSGAEVKKPGASVKVSCKASGYTFTSYNMHWVRQAPGKGLEWMGAIYPGNGDTSYNQKFKGRFTISRDNAKNSLYLQMNSLRAEDTAVYYCARSHYGSNYVDYFDYWGQGTLVTVSS
VL: DIVMTQSPDSLAVSLGERATINCRASSSLSFMHWYQQKPGQAPRLLIYATSNLASGVPSRFSGSGSGTDFTLTISSLQPEDFATYYCHQWSSNPLTFGQGTKVEIKR
notes: Full-length IgG, unpurified HEK-293 supernatant; also called LC & HC combination 2
binding result [1]: binds

B3: anti-CD20 HuFR variant 5 (light chain BD22087, heavy chain BD20335) (antibody, human IgG1, kappa, V domains shown)
VH: QVQLVQSGAEVKKPGASVKVSCKASGYTFTSYNMHWVRQAPGKGLEWMGAIYPGNGDTSYNQKFKGRFTISRDNAKNSLYLQMNSLRAEDTAVYYCARSHYGSNYVDYFDYWGQGTLVTVSS
VL: EIVLTQSPGTLSLSPGERATLSCRASSSLSFMHWYQQKPGKAPKLLIYATSNLASGVPSRFSGSGSGTEFTLTISSLQPDDFATYYCHQWSSNPLTFGQGTKVEIKR
notes: Full-length IgG, unpurified HEK-293 supernatant; also called LC & HC combination 5
binding result [3]: binds

B7: anti-CD20 HuFR variant 4 (light chain BD22088, heavy chain BD20337) (antibody, human IgG1, kappa)
heavy: not shown
light: DIVMTQSPLSLPVTPGEPASISCRASSSLSFMHWYQQKPGQPPKLLIYATSNLASGVPSRFSGSGSGTDFTFTISSLQPEDIATYYCHQWSSNPLTFGQGTKVEIKRTVAAPSVFIFPPSDEQLKSGTASVVCLLNNFYPREAKVQWKVDNALQSGNSQESVTEQDSKDSTYSLSSTLTLSKADYEKHKVYACEVTHQGLSSPVTKSFNRGEC
notes: Full-length IgG, unpurified HEK-293 supernatant; also called LC & HC combination 4
binding result [7]: binds

B8: anti-CD20 HuFR variant 8 (light chain BD22095, heavy chain BD20337) (antibody, human IgG1, kappa)
heavy: not shown
light: EIVMTQSPATLSVSPGERATLSCRASSSLSFMHWYQQKPGQPPKLLIYATSNLASGVPSRFSGSGSGTDFTFTISSLQPEDIATYYCHQWSSNPLTFGQGTKVEIKRTVAAPSVFIFPPSDEQLKSGTASVVCLLNNFYPREAKVQWKVDNALQSGNSQESVTEQDSKDSTYSLSSTLTLSKADYEKHKVYACEVTHQGLSSPVTKSFNRGEC
notes: Full-length IgG, unpurified HEK-293 supernatant; also called LC & HC combination 8
binding result [8]: binds
